# From patent US20240400638A1, “COMBINATION OF RELAXIN AND VASOPRESSIN ANALOGUES FOR TREATMENT OF RENAL DISORDERS OR CONDITIONS” (River 2 Renal Corp., priority 2021, published 2024)
# Numbered stars: 1 amine (or outer) side, 2 acyl side, 3 side chain; on linkers, the order of the positions; unused ones are H or OH. Square brackets hold non-standard residues; d marks the D form. Side chains are listed from the residue outwards. * marks the point of attachment. TTDS = 4-[3-[2-[2-(3-aminopropoxy)ethoxy]ethoxy]propylamino]-4-oxo-butanoyl; Trp(5-Cl) = N[C@@H](Cc1c[nH]c2ccc(Cl)cc12)C(=O)O; γGlu = O=C(O)[C@H](CCC(=O)[*:2])N[*:1]; Stearoyl = CCCCCCCCCCCCCCCCCC(=O)*; Palmitoyl = CCCCCCCCCCCCCCCC(=O)*; αMeK = C[C@](N)(CCCCN)C(=O)O; AEEA = NCCOCCOCC(=O)O; Aib = CC(C)(N)C(=O)O
# T1: human RXFP1 (human, UniProt Q9HBX9 1-757)
# T1 sequence (looked up): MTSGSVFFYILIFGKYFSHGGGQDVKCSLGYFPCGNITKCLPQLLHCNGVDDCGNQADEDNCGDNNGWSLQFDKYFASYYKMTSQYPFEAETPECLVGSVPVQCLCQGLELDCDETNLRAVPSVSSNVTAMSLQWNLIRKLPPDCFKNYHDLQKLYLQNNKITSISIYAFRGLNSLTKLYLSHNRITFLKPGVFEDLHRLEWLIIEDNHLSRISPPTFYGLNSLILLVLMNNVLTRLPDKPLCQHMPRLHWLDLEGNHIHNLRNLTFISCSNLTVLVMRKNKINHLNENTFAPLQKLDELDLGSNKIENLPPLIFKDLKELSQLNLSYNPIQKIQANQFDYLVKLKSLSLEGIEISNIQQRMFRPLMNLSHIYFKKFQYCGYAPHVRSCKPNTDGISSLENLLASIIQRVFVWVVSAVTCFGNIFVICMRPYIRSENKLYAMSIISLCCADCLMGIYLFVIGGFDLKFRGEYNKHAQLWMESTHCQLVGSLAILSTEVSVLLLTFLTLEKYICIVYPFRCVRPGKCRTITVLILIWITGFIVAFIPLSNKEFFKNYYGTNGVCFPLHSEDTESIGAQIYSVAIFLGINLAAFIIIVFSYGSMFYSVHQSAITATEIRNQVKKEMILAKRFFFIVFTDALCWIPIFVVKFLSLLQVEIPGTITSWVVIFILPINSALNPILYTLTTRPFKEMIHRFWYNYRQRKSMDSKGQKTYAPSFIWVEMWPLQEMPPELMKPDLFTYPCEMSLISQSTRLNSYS
# B1: Relaxin peptide analogue of SEQ ID NO: 5 (peptide)
# peptide: Ac-LEGREKVRAK(Ac)I[Aib][Aib]EGK([AEEA-AEEA-AEEA-AEEA-γGlu-γGlu-γGlu-Palmitoyl])STWS[Aib]RKK(Ac)-NH2
# SMILES: CCCCCCCCCCCCCCCC(=O)N[C@@H](CCC(=O)N[C@@H](CCC(=O)N[C@@H](CCC(=O)NCCOCCOCC(=O)NCCOCCOCC(=O)NCCOCCOCC(=O)NCCOCCOCC(=O)NCCCC[C@H](NC(=O)CNC(=O)[C@H](CCC(=O)O)NC(=O)C(C)(C)NC(=O)C(C)(C)NC(=O)[C@@H](NC(=O)[C@H](CCCCNC(C)=O)NC(=O)[C@H](C)NC(=O)[C@H](CCCNC(=N)N)NC(=O)[C@@H](NC(=O)[C@H](CCCCN)NC(=O)[C@H](CCC(=O)O)NC(=O)[C@H](CCCNC(=N)N)NC(=O)CNC(=O)[C@H](CCC(=O)O)NC(=O)[C@H](CC(C)C)NC(C)=O)C(C)C)[C@@H](C)CC)C(=O)N[C@@H](CO)C(=O)N[C@H](C(=O)N[C@@H](Cc1c[nH]c2ccccc12)C(=O)N[C@@H](CO)C(=O)NC(C)(C)C(=O)N[C@@H](CCCNC(=N)N)C(=O)N[C@@H](CCCCN)C(=O)N[C@@H](CCCCNC(C)=O)C(N)=O)[C@@H](C)O)C(=O)O)C(=O)O)C(=O)O
# Target: T1, human RXFP1
# Assay: cell-based or functional assay
"EC50 (nM), OVCAR 5 cells (cAMP)","EMax, OVCAR 5 cells (cAMP)",Binder
0.15 nM,95%,Ac-LEGREKVRAK(Ac)I[Aib][Aib]EGK([TTDS-TTDS-γGlu-γGlu-γGlu-Stearoyl])STFS[Aib]RKK(Ac)-NH2 [Relaxin peptide analogue of SEQ ID NO: 60]
0.07 nM,95%,Ac-LEGREKVRAK(Ac)I[Aib][Aib]EGK([TTDS-TTDS-TTDS-γGlu-γGlu-γGlu-Stearoyl])STFS[αMeK]RAK(Ac)-NH2 [Relaxin peptide analogue of SEQ ID NO: 7]
0.2 nM,95%,Ac-LEGREKVRAK(Ac)I[Aib][Aib]EGK([TTDS-TTDS-TTDS-γGlu-γGlu-γGlu-Palmitoyl])SKWS[Aib]RAK-NH2 [Relaxin peptide analogue of SEQ ID NO: 73]
1.19 nM,95%,Ac-LEGREKVRK(Ac)QI[Aib][Aib]EGK([TTDS-TTDS-TTDS-γGlu-γGlu-γGlu-Palmitoyl])STWS[Aib]RKK(Ac)-NH2 [Relaxin peptide analogue of SEQ ID NO: 65]
1.5 nM,99%,Ac-LEGREKVRAK(Ac)I[Aib][Aib]EGK([TTDS-TTDS-TTDS-γGlu-γGlu-γGlu-Palmitoyl])STWS[Aib]RKK(Ac)-NH2 [Relaxin peptide analogue of SEQ ID NO: 1]
1.45 nM,97%,Ac-LEGREKVRAK(Ac)I[Aib][Aib]EGK([TTDS-TTDS-TTDS-γGlu-γGlu-γGlu-Palmitoyl])SQWS[Aib]RKK(Ac)-NH2 [Relaxin peptide analogue of SEQ ID NO: 63]
0.88 nM,98%,Ac-LEGREKVRAK(Ac)I[Aib][Aib]EGK([TTDS-TTDS-TTDS-γGlu-γGlu-γGlu-Palmitoyl])STWS[Aib]RK(Ac)K-NH2 [Relaxin peptide analogue of SEQ ID NO: 68]
6.31 nM,93%,Ac-LEGREKVRAK(Ac)I[Aib][Aib]EGK([TTDS-TTDS-TTDS-γGlu-γGlu-γGlu-Palmitoyl])STWK(Ac)[Aib]RAK(Ac)-NH2 [Relaxin peptide analogue of SEQ ID NO: 66]
0.1 nM,97%,Ac-LEGREKVRAK(Ac)I[Aib][Aib]EGK([TTDS-TTDS-TTDS-γGlu-γGlu-γGlu-Stearoyl])STFS[Aib]RKK(Ac)-NH2 [Relaxin peptide analogue of SEQ ID NO: 61]
0.56 nM,91%,Ac-LEGREKVRAK(Ac)I[Aib][Aib]EGK([TTDS-TTDS-TTDS-γGlu-γGlu-γGlu-Palmitoyl])STF[Aib]RRAK(Ac)-NH2 [Relaxin peptide analogue of SEQ ID NO: 72]
0.18 nM,99%,Ac-LEGREKVRAK(Ac)I[Aib][Aib]EGK([TTDS-TTDS-TTDS-TTDS-γGlu-γGlu-γGlu-Palmitoyl])STFS[αMeK]RAK(Ac)-NH2 [Relaxin peptide analogue of SEQ ID NO: 78]
0.11 nM,98%,Ac-LEGRERVRAK(Ac)I[Aib][Aib]EGK([TTDS-TTDS-TTDS-TTDS-γGlu-γGlu-γGlu-Palmitoyl])STFS[Aib]RRK(Ac)-NH2 [Relaxin peptide analogue of SEQ ID NO: 77]
0.36 nM,95%,Ac-LEGREKVRAK(Ac)I[Aib][Aib]EGK([TTDS-TTDS-TTDS-γGlu-γGlu-γGlu-Palmitoyl])STWS[Aib]RAK-NH2 [Relaxin peptide analogue of SEQ ID NO: 71]
0.45 nM,95%,Ac-LEGREKVRAK(Ac)I[Aib][Aib]EGK([TTDS-TTDS-TTDS-γGlu-γGlu-γGlu-Palmitoyl])SKFS[Aib]RKK(Ac)-NH2 [Relaxin peptide analogue of SEQ ID NO: 79]
0.52 nM,95%,Ac-LEGREKVRAK(Ac)I[Aib][Aib]EGK([TTDS-TTDS-TTDS-γGlu-γGlu-γGlu-Palmitoyl])SRWS[Aib]RKK(Ac)-NH2 [Relaxin peptide analogue of SEQ ID NO: 64]
9.1 nM,85%,B1
1.34 nM,94%,Ac-LEGREKVRAK(Ac)I[Aib]IEGK([TTDS-TTDS-TTDS-γGlu-γGlu-γGlu-Palmitoyl])STWS[Aib]RKK(Ac)-NH2 [Relaxin peptide analogue of SEQ ID NO: 70]
0.78 nM,97%,Ac-LEGREKVRAK(Ac)I[Aib][Aib]EGK([TTDS-TTDS-TTDS-γGlu-γGlu-γGlu-Palmitoyl])STWS[Aib]RK(Ac)R-NH2 [Relaxin peptide analogue of SEQ ID NO: 69]
0.27 nM,95%,Ac-LEGREKVRAK(Ac)I[Aib][Aib]EGK([TTDS-TTDS-γGlu-γGlu-γGlu-Stearoyl])STWS[Aib]RKK(Ac)-NH2 [Relaxin peptide analogue of SEQ ID NO: 6]
0.48 nM,95%,Ac-LEGRERVRAK(Ac)I[Aib][Aib]EGK([TTDS-TTDS-TTDS-γGlu-γGlu-γGlu-Palmitoyl])STWS[Aib]RKK(Ac)-NH2 [Relaxin peptide analogue of SEQ ID NO: 67]
0.6 nM,98%,Ac-LEGREKVRAK(Ac)I[Aib][Aib]EGK([TTDS-TTDS-TTDS-γGlu-γGlu-γGlu-γGlu-Palmitoyl])STWS[Aib]RKK(Ac)-NH2 [Relaxin peptide analogue of SEQ ID NO: 62]
0.09 nM,99%,Ac-LEGREKVRAK(Ac)I[Aib][Aib]EGK([TTDS-TTDS-TTDS-TTDS-γGlu-γGlu-γGlu-Stearoyl])STFS[Aib]RKK(Ac)-NH2 [Relaxin peptide analogue of SEQ ID NO: 59]
0.18 nM,96%,Ac-LEGRERVRAK(Ac)I[Aib][Aib]EGK([TTDS-TTDS-TTDS-γGlu-γGlu-γGlu-Palmitoyl])STFS[Aib]RRK(Ac)-NH2 [Relaxin peptide analogue of SEQ ID NO: 76]
0.54 nM,94%,Ac-LEGREKVRAK(Ac)I[Aib]IEGK([TTDS-TTDS-TTDS-TTDS-γGlu-γGlu-γGlu-Palmitoyl])STWS[Aib]RKK(Ac)-NH2 [Relaxin peptide analogue of SEQ ID NO: 74]
0.63 nM,93%,Ac-LEGRERVRAK(Ac)I[Aib][Aib]EGK([TTDS-TTDS-TTDS-γGlu-γGlu-γGlu-Palmitoyl])ST[Trp(5-Cl)]S[Aib]RRK(Ac)-NH2 [Relaxin peptide analogue of SEQ ID NO: 80]
0.19 nM,97%,Ac-LEGRERVRAK(Ac)I[Aib][Aib]EGK([TTDS-TTDS-TTDS-TTDS-γGlu-γGlu-γGlu-Palmitoyl])STWS[Aib]RRK(Ac)-NH2 [Relaxin peptide analogue of SEQ ID NO: 75]
0.16 nM,98%,Ac-K(Ac)EGREKVRAK(Ac)I[Aib][Aib]EGK([TTDS-TTDS-TTDS-γGlu-γGlu-γGlu-Palmitoyl])STFS[αMeK]RAK(Ac)-NH2 [Relaxin peptide analogue of SEQ ID NO: 81]
